Key:
[1] = system: NogoA, NogoB, NogoC, MAG and OM-gp binding to Nogo receptor-1; assay: Soluble Nogo receptors block ligand binding to Nogo receptor-1
[2] = system: DRG neurons, myelin-mediated inhibition of neurite outgrowth; assay: Neurite outgrowth assay, P3-4 rat DRG neurons, myelin mixed with test protein (Example 10); type: cell-based; conditions: mixed with CNS myelin, FIGS. 9-11
Method: Lab-Tek® culture slides (4 wells) were coated with 0.1 mg/ml poly-D-lysine (Sigma®). CNS myelin alone or mixed with sNogoR310, sNogoR310-Fc fusion protein, mAb 5B10 or control PBS were separately spotted as 3 μl drops. Fluorescent microspheres (Polysciences) were added to the myelin/PBS to allow later identification of the drops (Grandpre et al., Nature 403:439-444 (2000)). Lab-Tek® slides were then rinsed and coated with 10 μg/ml laminin (Gibco™).
Dorsal root ganglions (DRG's) from P3-4 Sprague Dawley rat pups were dissociated with 1 mg/ml collagenase type 1 (Worthington), triturated with fire-polished Pasteur pipettes pre-plated to enrich in neuronal cells and finally plated at 23,000 cells/well on the pre-coated Labtek culture slides. The culture medium was F12 containing 5% heat inactivated donor horse serum, 5% heat inactivated fetal bovine serum and 50 ng/ml mNGF and incubated at 37° C. and 5% CO2 for 6 hours.
Slides were fixed for 20 minutes with 4% paraformaldehyde containing 20% sucrose and stained for the neuronal marker anti beta-III-tubulin (Covance TUJ1) diluted 1:500. As secondary antibody anti-mouse Alexa Fluor® 594 (Molecular Probes) was diluted 1:300 and slides were coverslipped with Gel/Mount™ (Biømeda™). 5× digital images were acquired with OpenLab™ software and analyzed by using the MetaMorph® software for quantification of neurite outgrowth.

chick neurons = assay: Neurite outgrowth assay using chick neurons; type: cell-based
[3] = system: mice with dorsal over-hemisection injury; assay: gfap::sNogoR310 transgenic mice, dorsal over-hemisection: axon tracing and serotonin fiber analysis; type: in vivo, mouse
Text: We cloned the mouse sNogoR310 cDNA (corresponding to amino acids 1-310 of the Nogo receptor-1) into the Nod site of the C-3123 vector. In this vector, sNogoR310 expression is under the control of the glial fibrillary acidic protein (gfap) gene regulatory elements, which allow high level expression with enhanced secretion from reactive astrocytes at site of injury. We digested the resulting vector sequentially with AatII and SfiI and isolated the gfap::sNogoR310 construct on a 3.4 kb fragment. We microinjected this fragment into embryos to generate transgenic mice. We verified by PCR that the transgene had integrated and identified five founder lines. We crossed heterozygous males of the two founder lines with the highest expression levels to female C57BL/6J mice. We confirmed that the GFAP-positive cells express and secrete sNogoR310 in heterozygous transgenic mice by Western blot analysis using antibody raised against Nogo receptor-1.
We deeply anesthetized adult female heterozygous transgenic or littermate WT mice (10-16 weeks of age) and performed a complete laminectomy, fully exposing the dorsal part of spinal cord at T6 and T7 levels. We performed a dorsal over-hemisection at T6 with a 30-gauge needle and a pair of microscissors to completely sever the dorsal and dorsolateral corticospinal tracts (CSTs). We passed a marked needle across the dorsal part of the spinal cord several times to assure that the lesion was at a depth of 1.0 mm. We sutured the muscle layers over the laminectomies and closed the skin on the back with surgical staples. To trace the corticospinal tracts, we made a burr hole overlying cerebral cortex on the right side into the skull 14 days after spinal cord injury. We applied the tracer BDA (MW 10,000, 10% in PBS) (Molecular Probes, Eugene, Oreg.) to 4 injection sites at a depth of 0.7 mm from the cortical surface, Four weeks after injury, the mice were perfused transcardially with PBS, followed by 4% paraformaldehyde.
We investigated the integrity of descending corticospinal tracts (CST) by injecting anterograde tracer biotin dextran amine (BDA) into the right motor cortex as described in Li and Strittmatter, J. Neurosci. 23:4219-27 (2003). In littermate WT mice, the prominent dorsal CST (dCST) is tightly bundled rostral to the lesion, and a few dorsolateral CST fibers are visible ipsilaterally. A small number of BDA-labeled short collateral sprouts project into gray matter, particularly in the ventral cord, but the sprouting is largely confined to the side of the cord contralateral to the tracer injection. However, the sections rostral to dorsal hemisection from injured sNogoR310 transgenic mice indicate a quite different BDA labeling pattern. A high density of BDA-labeled CST fibers are observed outside of prominent dCST in all the transgenic mice from line Tg08 or line Tg01. Ectopic fibers extend throughout the gray matter area, and some fibers reach into lateral and dorsolateral white matter. Several fibers (4-12 sprouts per transverse section) are seen on the opposite side of the spinal cord (ipsilateral to the tracer injection site). Micro densitometric measurement of the collateral sprouts indicates approximately a tenfold increase in sprouting density in sNogoR310 transgenic mice. […]

[4] = system: mice with dorsal over-hemisection injury; assay: gfap::sNogoR310 transgenic mice, dorsal over-hemisection: behavioral tests; type: in vivo, mouse
Text: The Basso-Beattie-Bresnahan (BBB) locomotor rating scale (Basso et al., Neurotrauma 13:343-359 (1996)), the inclined plane test and the inclined grid walking test (Li and Strittmatter, J Neurosci. 23:4219-27 (2003)) were monitored in rats and mice after injury. For the inclined plane test, we measured the maximal angle to which a 50 cm×60 cm board could be angled for 5 sec without the mouse sliding off. For inclined grid walking, the mice were trained to climb a wire grid (35 cm long with 2.54 cm squares) at a slope of 45 degrees. The number of instances in which the hindpaw dropped below the grid plane was scored for each excursion from bottom to top. For the rat behavioral testing, BBB locomotor scale, grid walking and footprint analysis were performed. For grid walking, the rats were trained to walk on a wire grid (70 cm long with 2.54 an squares), and the number of instances in which the hindpaw dropped below the grid plane was counted. For footprint analysis, the walking patterns of rat hindpaws were recorded with ink during a continuous locomotion across a 90 cm runway, and stride length on each side and stride width were calculated (Metz et al., Brain Res. 883:165-177 (2000)). All of these behavioral tests were performed by at least two individuals. Throughout the surgery, behavioral testing and histologic analysis, researchers were blind to the identity of the compound in the minipump.
We deeply anesthetized adult female heterozygous transgenic or littermate WT mice (10-16 weeks of age) and performed a complete laminectomy, fully exposing the dorsal part of spinal cord at T6 and T7 levels. We performed a dorsal over-hemisection at T6 with a 30-gauge needle and a pair of microscissors to completely sever the dorsal and dorsolateral corticospinal tracts (CSTs). We passed a marked needle across the dorsal part of the spinal cord several times to assure that the lesion was at a depth of 1.0 mm. We sutured the muscle layers over the laminectomies and closed the skin on the back with surgical staples. […]

P6 DRG neurons = assay: Neuro-protection assay, P6-7 rat DRG neurons with or without laminin; type: cell-based
Method: We also tested the neuro-protective effect of soluble Nogo receptors by performing experiments with cells grown in the presence and absence of laminin. Neuronal cell growth in media without laminin is poor and models neuronal stress conditions.
DRG's were dissected from post-natal day 6-7 rat pups (P6-7), dissociated into single cells and plated on 96-well plates pre-coated with poly-D-lysine as described above. In some wells 2 μg/ml laminin was added for 2-3 hours and rinsed before the cells were plated. After an 18-20 h incubation the plates were fixed with 4% para-formaldehyde, stained with rabbit anti-Beta-III-tubulin antibody diluted 1:500 (Covance®) and anti-HuC/D diluted 1:100 (Molecular Probes), and fluorescent secondary antibodies (Molecular Probes) were added at 1:200 dilution. The ArrayScan® II (Cellomics®) was used to capture 5× digital images and to quantify neurite outgrowth as average neurite outgrowth/neuron per well, by using the Neurite outgrowth application. Nine 5× images from 3 wells/condition were analyzed.
(§1) sNogoR344-Fc or rat IgG were added in solution to P6-7 DRG neurons and to differentiated Neuroscreen™ cells at the time of plating.

[5] = system: Neuroscreen cells (sub-clone of PC12 cells); assay: Neuro-protection assay, differentiated Neuroscreen cells with or without laminin; type: cell-based; conditions: same concentrations, absence of laminin
Method: In some experiments, a sub-clone of PC12 cells (Neuroscreen™) was used (Cellomics®). The Neuroscreen™ cells were pre-differentiated for 7 days with 200 ng/ml NGF, detached and replated on 96-well plates pre-coated with poly-D-lysine. In some wells 5 μg/ml laminin was added for 2-3 hours and rinsed before the cells were plated. After 2 days incubation the plates were fixed with 4% paraformaldehyde, stained with rabbit anti-Beta-III-tubulin antibody diluted 1:500 (Covance®) and Hoechst (nuclear stain). The ArrayScan® II was used to quantify neurite outgrowth as in the DRG cells.
as §1

| Molecule | block of binding of NogoA, NogoB, NogoC, MAG and OM-gp to Nogo receptor-1 [1] | protection of DRG neurons from myelin-mediated inhibition of neurite outgrowth [2] | protection in similar assay using chick neurons (chick neurons) | BDA-labeled regenerating fibers coursing in the rostral-caudal axis ([3]; any level 1-4 mm caudal to the lesion, each transgenic mouse) | fibers on the opposite side of the spinal cord (ipsilateral to the tracer injection site) ([3]; rostral to dorsal hemisection, transgenic mice) | CST sprouting ([3]; secreted from astrocytes in transgenic mice) | total length of serotonin fibers in the ventral horn of caudal spinal cord ([3]; transgenic vs WT group) | increase in collateral sprouting density (micro densitometric measurement) ([3]; transgenic vs WT mice) | sustainable angle on inclined plane ([4]; days 7-28 after injury vs control) | BBB scores ([4]; lines Tg08 and Tg01 vs control, 7-28 days) | inclined grid climbing errors ([4]; post-injury, FIG. 13D) | neuro-protective effect (P6 DRG neurons; 1 μM and 10 μM, absence of laminin) | quantification of neurite outgrowth (P6 DRG neurons; absence of laminin) | effect on DRG neurons growing on a laminin substrate (P6 DRG neurons; same concentrations, laminin substrate) | neuro-protective effect [5] |
| --- | --- | --- | --- | --- | --- | --- | --- | --- | --- | --- | --- | --- | --- | --- | --- |
| sNogoR310: soluble Nogo receptor-1 polypeptide, residues 26-310 of SEQ ID NOs: 7 and 9 or 27-310 of SEQ ID NO: 9; mouse form in transgenic mice (protein, listed as Homo sapiens) PCPGACVCYNEPKVTTSCPQQGLQAVPVGIPAASQRIFLHGNRISHVPAASFRACRNLTILWLHSNVLARIDAAAFTGLALLEQLDLSDNAQLRSVDPATFHGLGRLHTLHLDRCGLQELGPGLFRGLAALQYLYLQDNALQALPDDTFRDLGNLTHLFLHGNRISSVPERAFRGLHSLDRLLLHQNRVAHVHPHAFRDLGRLMTLYLFANNLSALPTEALAPLRALQYLRLNDNPWVCDCRARPLWAWLQKFRGSSSEVPCSLPQRLAGRDLKRLAANDLQGCA | block | protected | protective | 5-15 | 4-12 sprouts per transverse section | induces CST sprouting | much greater number | tenfold | significantly greater | significantly higher | progressive improvement |  |  |  |  |
| sNogoR344-Fc: fusion protein of residues 26-344 of rat Nogo receptor-1 and hinge and Fc region of rat IgG1 (protein, left off: a dimerising Fc or GST, fusion protein of residues 26-344 of rat Nogo receptor-1 and hinge and Fc region of rat IgG1) PCPGACVCYNEPKVTTSRPQQGLQAVPAGIPASSQRIFLHGNRISYVPAASFQSCRNLTILWLHSNALAGIDAAAFTGLTLLEQLDLSDNAQLRVVDPTTFRGLGHLHTLHLDRCGLQELGPGLFRGLAALQYLYLQDNNLQALPDNTFRDLGNLTHLFLHGNRIPSVPEHAFRGLHSLDRLLLHQNHVARVHPHAFRDLGRLMTLYLFANNLSMLPAEVLVPLRSLQYLRLNDNPWVCDCRARPLWAWLQKFRGSSSGVPSNLPQRLAGRDLKRLATSDLEGCAVASGPFRPFQTNQLTDEELLGLPKCCQPDAADKA |  |  |  |  |  |  |  |  |  |  |  | observed | dose-dependent increase | did not produce any unusual effect | seen |

From patent publication US9228015B2, “Nogo receptor antagonists and methods of increasing neurite outgrowth” (Biogen Idec MA Inc., priority 2006, dated 2016)
